Data reported in US9994813, “Role for the perlman syndrome exonuclease Dis3l2 in the Lin28-let-7 pathway” (Children's Medical Center Corporation).

Legend:
Dis3l2 D389N = biological target: T1, Dis3l2 D389N (Mus musculus, UniProt Q8CI75 Q8CI75:1-870, D389N); test: EMSA; 1 nM RNA, 50 mM Tris pH 7.6, 100 mM NaCl; conditions: tags: 6xHis, E. coli; label: 5'-32P; hairpin with 3' oligoU tail
T1 sequence: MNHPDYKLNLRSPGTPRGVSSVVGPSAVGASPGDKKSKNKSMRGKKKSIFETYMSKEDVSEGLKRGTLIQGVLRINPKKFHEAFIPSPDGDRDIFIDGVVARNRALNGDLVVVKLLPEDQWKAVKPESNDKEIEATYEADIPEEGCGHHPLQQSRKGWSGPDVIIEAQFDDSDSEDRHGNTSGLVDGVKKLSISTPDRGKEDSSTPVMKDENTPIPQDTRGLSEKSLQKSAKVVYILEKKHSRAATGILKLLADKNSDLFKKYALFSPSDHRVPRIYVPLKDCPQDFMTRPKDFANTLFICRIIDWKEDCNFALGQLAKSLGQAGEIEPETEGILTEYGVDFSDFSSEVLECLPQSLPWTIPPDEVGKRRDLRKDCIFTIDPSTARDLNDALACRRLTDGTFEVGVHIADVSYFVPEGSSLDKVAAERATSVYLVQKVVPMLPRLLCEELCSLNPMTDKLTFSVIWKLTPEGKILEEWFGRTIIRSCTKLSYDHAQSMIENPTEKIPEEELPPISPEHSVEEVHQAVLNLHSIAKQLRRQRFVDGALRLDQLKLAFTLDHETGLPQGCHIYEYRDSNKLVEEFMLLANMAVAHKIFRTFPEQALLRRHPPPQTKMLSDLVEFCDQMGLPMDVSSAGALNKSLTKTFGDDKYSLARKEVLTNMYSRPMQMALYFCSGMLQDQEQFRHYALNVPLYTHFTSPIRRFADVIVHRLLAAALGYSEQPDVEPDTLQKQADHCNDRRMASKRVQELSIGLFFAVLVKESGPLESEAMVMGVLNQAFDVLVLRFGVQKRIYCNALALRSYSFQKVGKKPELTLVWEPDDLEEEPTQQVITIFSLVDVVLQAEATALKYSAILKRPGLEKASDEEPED
Method: (§1) EMSA experiments were performed as described previously. Briefly, 1 nM of the indicated radiolabeled synthetic RNA was incubated in the binding buffer (50 mM Tris pH 7.6, 100 mM NaCl, 10 mM […], 1 unit/µl RNaseOUT) with varying concentrations of catalytically inert recombinant 6x-His Dis3L2 or recombinant 6x-His Lin28 in the absence of competitor RNA. Nucleoprotein complexes were resolved by 4-20% non-denaturing TBE gel electrophoresis (Biorad, #345-0059) and visualized by autoradiography.

Lin28A = biological target: T2, Lin28A (UniProt Q8K3Y3 Q8K3Y3:1-209); test: EMSA; conditions: tags: 6xHis, E. coli; label: 5'-32P; hairpin with 3' oligoU tail
T2 sequence: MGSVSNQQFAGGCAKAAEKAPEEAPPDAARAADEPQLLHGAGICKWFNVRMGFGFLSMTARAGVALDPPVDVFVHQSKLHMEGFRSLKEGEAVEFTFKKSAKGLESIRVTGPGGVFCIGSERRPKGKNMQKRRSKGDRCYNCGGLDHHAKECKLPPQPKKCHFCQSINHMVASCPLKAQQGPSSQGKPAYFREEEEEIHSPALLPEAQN
Method: as §1

Dis3l2 D389N (Flag) = biological target: T3, Dis3l2 D389N (Flag) (Mus musculus, UniProt Q8CI75 Q8CI75:1-870, D389N); test: EMSA; retains binding though catalytically inactive; conditions: tags: Flag, immunopurified from V6.5 ESC; label: 5'-32P; hairpin with 3' oligoU tail
T3 sequence: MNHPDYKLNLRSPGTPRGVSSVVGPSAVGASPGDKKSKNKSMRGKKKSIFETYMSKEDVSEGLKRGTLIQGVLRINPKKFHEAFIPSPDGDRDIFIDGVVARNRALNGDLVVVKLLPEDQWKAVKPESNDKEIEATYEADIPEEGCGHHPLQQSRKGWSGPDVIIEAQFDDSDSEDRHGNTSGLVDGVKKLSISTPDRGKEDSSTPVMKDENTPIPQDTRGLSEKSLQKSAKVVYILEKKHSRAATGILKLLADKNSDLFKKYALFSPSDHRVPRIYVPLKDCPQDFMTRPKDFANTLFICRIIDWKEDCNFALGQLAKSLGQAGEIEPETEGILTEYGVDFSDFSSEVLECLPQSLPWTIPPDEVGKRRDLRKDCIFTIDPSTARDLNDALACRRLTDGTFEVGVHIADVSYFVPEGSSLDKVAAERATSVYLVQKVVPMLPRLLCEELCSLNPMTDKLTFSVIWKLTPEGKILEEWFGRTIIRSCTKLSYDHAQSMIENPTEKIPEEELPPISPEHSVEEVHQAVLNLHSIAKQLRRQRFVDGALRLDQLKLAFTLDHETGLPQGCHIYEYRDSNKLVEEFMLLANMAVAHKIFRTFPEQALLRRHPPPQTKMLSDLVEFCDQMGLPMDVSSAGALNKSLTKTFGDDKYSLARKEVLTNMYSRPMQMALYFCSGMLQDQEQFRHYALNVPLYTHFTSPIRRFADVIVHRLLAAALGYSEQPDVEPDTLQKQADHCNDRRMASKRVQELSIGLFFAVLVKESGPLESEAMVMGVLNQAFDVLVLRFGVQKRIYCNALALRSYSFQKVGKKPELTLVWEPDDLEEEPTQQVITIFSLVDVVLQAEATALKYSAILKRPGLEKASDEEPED

[1] = biological target: T4, Dis3l2 (recombinant 6xHis) (Mus musculus, UniProt Q8CI75 Q8CI75:1-870); test: cleavage_in_vitro; relative RNA stability difference versus non-uridylated; 0.05 mM MgCl2, 50 mM KCl, pH 7.5, 37 C; conditions: tags: 6xHis, pETDuet-1, E. coli; label: 5'-32P; hairpin with 3' oligoU tail
T4 sequence: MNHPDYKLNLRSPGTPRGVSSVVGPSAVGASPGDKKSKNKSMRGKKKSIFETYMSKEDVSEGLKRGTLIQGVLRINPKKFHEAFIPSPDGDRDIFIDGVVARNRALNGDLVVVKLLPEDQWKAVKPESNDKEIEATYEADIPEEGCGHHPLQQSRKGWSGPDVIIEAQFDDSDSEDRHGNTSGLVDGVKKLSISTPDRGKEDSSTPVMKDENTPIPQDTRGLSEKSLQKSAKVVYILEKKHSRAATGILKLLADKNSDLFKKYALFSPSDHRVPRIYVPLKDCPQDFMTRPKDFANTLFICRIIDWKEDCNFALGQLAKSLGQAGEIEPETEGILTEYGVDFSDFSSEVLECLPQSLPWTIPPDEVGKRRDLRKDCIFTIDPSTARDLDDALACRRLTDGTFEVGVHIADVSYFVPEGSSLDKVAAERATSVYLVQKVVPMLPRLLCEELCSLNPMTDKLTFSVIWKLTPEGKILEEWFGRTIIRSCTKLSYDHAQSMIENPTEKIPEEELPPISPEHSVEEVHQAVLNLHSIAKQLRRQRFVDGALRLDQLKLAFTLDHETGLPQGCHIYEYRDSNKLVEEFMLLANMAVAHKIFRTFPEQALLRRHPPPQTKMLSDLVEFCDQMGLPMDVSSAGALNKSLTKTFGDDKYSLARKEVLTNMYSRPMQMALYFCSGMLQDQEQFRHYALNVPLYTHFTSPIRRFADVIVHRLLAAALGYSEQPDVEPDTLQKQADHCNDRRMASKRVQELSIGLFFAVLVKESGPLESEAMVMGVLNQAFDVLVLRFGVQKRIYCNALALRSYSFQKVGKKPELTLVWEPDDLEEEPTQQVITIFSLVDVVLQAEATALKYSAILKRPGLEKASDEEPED
Method: RNA degradation assays were performed in a total of 20 µl reaction using 6.25 nM 5' end-labeled pre-miR-21, pre-let-7a-1, or pre-let-7a-1+14U RNA (see Table 2) together with Dis3l2 and/or Lin28A. The reactions were set up in the RNA degradation buffer (20 mM HEPES-KOH pH 7.5, 50 mM KCl, 0.05 mM MgCl2, 1 mM DTT) and incubated at 37° C. for 90 minutes. For time-course assays; recombinant 6x-His Dis3l2 was incubated with radiolabeled pre-let-7a-1 or pre-let-7a-1+14U. Bands from three independent experiments were quantified using ImageJ (NIH) and plotted using Prism (Graphpad). Values were fitted to one-phase decay curves with error bars representing +/- s.d. (n=3). For Uridylation-stimulated degradation assays; in vitro uridylation assays were performed as described previously[20,26,27] except with the addition of 10 µM cold competitor uridine triphosphate and immunopurified Dis3l2 where indicated.

B1: mmu-pre-let-7a-1+14U (ssRNA)
RNA: UGAGGUAGUAGGUUGUAUAGUUUUAGGGUCACACCCACCACUGGGAGAUAACUAUACAAUCUACUGUCUUUCCUUUUUUUUUUUUUU
binding result (Dis3l2 D389N): binds | binding result (Lin28A): binds | binding result (Dis3l2 D389N (Flag)): binds | activity [1]: > 10 fold
